Assays:
[1] = pH, pKa and isoelectronic point of PuraMatrix; assay type: physicochemical; settings: aqueous 1% PuraMatrix solution, in this study
From the text: Isoelectronic point (pI) is the pH at which a particular molecule carries no net electrical charge. PuraMarix® has four arginine and four aspartic acid. […] That means that there is no net electrical charge between around pH 3.9 and around pH 11.5, where the solubility of PuraMatrix® becomes low. Usually, aqueous PuraMatrix® solution has its pH level at 2.0-2.5. […] Although isotonic PuraMatrix® formulated in 10% sucrose solution has been used for cell culture experiments as shown in the current PuraMatrix® cell culture protocol, the pH of PuraMatrix® with 10% sucrose was also 2.2.

[2] = cited from earlier work

## RADARADARADARADA [PuraMatrix®]
[1]
  pH: 2.2
[2]; aqueous PuraMatrix solution, usually
  pH level: 2.0-2.5
[2]; between around pH 3.9 and around pH 11.5
  solubility: low
[2]
  pKa of aspartic acid in PuraMatrix: 3.9
